These results are taken from patent US20100196393A1 (ST LOUIS UNIVERSITY, published 2010).

No end group written: not given here.

Experiment [1] concerns the target low density lipoprotein receptor-related protein-1 (LRP-1), mouse (mouse) (UniProt Q91ZX7). The experiment in a line: cell-based or functional assay.
Experiment [2] addresses beta-F1 ATPase (ATP synthase beta subunit), mouse, on brain microvessels (mouse, UniProt P56480 47-529). The experiment in a line: cell-based or functional assay.

Sequence of low density lipoprotein receptor-related protein-1 (LRP-1), mouse (mouse) (Q91ZX7 20-4545): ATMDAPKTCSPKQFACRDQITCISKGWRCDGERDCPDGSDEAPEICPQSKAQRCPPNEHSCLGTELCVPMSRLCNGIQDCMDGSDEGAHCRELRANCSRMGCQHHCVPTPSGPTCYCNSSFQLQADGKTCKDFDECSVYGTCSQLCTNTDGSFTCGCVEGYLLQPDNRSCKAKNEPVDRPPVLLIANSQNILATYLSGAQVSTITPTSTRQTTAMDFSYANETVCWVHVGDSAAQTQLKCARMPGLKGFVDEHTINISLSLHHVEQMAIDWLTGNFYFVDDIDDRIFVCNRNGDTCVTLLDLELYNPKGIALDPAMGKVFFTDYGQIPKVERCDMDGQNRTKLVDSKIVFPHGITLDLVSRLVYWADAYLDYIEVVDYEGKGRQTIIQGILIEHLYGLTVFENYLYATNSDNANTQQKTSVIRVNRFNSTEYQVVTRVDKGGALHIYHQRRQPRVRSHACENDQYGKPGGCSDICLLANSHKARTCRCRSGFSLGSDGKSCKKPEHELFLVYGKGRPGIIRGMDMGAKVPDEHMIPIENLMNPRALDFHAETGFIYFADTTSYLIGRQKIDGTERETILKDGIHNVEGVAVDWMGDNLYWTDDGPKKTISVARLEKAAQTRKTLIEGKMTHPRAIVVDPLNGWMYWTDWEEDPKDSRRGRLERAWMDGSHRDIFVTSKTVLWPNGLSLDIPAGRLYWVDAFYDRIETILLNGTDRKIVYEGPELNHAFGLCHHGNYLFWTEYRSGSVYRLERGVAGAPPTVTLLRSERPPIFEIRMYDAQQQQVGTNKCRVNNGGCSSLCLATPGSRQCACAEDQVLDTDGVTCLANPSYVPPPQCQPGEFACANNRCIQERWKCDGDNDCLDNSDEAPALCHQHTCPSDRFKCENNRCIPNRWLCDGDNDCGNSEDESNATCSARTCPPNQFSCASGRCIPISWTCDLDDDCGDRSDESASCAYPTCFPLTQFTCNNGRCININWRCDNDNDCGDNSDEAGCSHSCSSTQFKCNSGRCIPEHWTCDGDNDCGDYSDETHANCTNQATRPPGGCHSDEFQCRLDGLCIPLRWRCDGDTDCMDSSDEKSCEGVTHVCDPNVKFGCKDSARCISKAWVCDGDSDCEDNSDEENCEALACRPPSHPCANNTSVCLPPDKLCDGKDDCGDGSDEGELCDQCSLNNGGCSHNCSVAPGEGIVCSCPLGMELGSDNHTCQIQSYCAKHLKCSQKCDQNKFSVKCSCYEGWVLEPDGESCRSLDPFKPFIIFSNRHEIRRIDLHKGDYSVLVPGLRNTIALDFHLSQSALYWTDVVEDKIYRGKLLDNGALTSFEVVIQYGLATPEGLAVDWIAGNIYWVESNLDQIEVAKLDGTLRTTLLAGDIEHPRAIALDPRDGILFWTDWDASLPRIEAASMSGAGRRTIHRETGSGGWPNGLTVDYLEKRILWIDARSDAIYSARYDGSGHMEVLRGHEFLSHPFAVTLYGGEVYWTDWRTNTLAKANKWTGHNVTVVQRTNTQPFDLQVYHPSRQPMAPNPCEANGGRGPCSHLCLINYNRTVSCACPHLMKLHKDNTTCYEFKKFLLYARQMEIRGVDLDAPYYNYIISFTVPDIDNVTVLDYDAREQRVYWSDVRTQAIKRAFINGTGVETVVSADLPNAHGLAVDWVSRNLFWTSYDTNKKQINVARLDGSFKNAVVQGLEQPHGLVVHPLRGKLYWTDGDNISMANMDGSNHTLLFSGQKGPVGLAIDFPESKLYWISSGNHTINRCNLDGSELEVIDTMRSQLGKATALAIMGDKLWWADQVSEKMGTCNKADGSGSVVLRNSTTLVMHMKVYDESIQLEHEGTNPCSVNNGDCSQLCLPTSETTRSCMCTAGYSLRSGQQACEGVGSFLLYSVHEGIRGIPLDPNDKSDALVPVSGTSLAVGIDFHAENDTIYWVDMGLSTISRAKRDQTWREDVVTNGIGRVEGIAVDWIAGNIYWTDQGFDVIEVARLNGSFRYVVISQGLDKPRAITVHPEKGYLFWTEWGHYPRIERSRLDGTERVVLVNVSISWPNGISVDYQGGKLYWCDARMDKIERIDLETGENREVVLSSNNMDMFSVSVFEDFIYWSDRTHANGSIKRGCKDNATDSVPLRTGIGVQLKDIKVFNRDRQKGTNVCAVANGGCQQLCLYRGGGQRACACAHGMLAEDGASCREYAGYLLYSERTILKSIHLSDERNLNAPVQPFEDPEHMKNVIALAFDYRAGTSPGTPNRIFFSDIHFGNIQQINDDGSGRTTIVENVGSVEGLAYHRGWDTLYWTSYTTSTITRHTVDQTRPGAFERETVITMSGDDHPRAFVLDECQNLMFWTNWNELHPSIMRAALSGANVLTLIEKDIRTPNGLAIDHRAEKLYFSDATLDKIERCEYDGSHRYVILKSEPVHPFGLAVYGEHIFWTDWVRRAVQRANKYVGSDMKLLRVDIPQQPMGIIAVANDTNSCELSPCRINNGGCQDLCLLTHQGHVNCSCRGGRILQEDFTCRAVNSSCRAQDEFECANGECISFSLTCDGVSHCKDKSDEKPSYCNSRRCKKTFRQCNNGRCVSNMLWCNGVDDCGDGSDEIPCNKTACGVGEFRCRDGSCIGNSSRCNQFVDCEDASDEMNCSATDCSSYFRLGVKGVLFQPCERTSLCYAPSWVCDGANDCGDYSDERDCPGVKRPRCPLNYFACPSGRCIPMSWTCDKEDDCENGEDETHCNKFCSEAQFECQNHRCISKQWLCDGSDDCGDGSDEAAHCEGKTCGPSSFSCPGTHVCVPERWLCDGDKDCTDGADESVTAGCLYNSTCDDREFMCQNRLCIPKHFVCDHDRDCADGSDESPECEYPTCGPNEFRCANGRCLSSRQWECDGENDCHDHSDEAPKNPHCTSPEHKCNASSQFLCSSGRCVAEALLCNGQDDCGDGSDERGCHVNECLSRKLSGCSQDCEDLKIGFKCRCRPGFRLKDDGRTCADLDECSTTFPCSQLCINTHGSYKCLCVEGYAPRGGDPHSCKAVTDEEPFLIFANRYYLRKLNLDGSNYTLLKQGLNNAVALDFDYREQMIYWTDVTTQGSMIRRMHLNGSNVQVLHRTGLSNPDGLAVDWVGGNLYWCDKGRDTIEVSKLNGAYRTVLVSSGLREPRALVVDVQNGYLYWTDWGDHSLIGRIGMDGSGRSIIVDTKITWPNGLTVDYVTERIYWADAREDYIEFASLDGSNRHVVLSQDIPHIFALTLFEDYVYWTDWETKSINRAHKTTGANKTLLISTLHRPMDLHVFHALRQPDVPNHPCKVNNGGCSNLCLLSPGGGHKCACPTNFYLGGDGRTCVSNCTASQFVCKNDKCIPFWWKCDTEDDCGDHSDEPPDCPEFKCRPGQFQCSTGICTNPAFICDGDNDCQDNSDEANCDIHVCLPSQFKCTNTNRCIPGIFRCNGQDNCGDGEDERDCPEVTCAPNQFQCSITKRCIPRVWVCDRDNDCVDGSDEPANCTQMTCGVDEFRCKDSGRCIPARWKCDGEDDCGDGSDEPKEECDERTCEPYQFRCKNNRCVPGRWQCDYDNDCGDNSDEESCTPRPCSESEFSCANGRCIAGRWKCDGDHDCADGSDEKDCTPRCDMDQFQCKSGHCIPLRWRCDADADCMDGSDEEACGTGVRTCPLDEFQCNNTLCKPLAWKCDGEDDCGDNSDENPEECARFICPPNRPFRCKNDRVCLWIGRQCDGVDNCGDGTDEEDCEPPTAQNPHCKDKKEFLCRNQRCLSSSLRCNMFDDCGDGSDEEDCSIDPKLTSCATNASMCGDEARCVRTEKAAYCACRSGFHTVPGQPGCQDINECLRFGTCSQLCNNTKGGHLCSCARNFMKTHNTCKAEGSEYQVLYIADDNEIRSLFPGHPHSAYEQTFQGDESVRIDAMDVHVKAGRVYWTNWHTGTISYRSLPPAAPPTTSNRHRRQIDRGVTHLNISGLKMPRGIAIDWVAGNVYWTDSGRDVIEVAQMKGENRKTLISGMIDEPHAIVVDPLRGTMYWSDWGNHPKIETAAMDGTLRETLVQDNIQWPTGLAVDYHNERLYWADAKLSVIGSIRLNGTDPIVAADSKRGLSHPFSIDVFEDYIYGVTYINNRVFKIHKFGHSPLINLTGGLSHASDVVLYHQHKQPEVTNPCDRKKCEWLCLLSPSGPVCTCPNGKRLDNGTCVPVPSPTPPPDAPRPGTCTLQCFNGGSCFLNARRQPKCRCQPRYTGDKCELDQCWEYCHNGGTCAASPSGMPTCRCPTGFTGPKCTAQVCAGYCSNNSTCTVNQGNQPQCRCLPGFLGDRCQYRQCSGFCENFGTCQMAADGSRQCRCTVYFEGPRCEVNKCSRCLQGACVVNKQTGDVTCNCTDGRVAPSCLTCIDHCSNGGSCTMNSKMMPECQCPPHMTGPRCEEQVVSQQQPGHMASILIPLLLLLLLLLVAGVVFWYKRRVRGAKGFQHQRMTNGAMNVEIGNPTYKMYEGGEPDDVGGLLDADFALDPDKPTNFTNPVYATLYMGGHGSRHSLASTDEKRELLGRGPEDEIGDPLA
Sequence of beta-F1 ATPase (ATP synthase beta subunit), mouse, on brain microvessels (P56480 47-529): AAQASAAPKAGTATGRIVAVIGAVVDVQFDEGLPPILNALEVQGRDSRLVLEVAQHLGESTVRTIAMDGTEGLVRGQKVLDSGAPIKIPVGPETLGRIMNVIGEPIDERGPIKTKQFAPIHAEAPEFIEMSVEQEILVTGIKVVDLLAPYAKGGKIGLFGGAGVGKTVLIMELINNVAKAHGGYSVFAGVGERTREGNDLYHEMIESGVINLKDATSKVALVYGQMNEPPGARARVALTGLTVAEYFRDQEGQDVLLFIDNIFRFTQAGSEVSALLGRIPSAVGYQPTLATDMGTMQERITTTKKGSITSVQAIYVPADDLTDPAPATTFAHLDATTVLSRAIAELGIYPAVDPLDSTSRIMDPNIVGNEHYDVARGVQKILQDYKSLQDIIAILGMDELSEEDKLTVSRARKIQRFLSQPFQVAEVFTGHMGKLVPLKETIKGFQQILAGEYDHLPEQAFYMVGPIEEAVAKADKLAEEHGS

Take “42 amino acid murine amyloid beta (Aβ42) (from UniProt P12023 672-713) (peptide)”: in experiment [1], the brain efflux of icv I-Aβ42 after two iv injections of anti-LRP-1 antisense cocktail, relative to saline treated mice was 0.87%.

As for HSDGIFTDSYSRYRKQMAVKKYLAAVL (peptide, UniProt P18509 132-158, looked up, ends and bridges not checked; also: 131I radioiodinated, residue not given here) [PACAP27 (pituitary adenylate cyclase-activating polypeptide, 27 amino acid form)], the “uptake of I-PACAP27 delivered by brain perfusion, 24 h after iv antisense cocktail against beta-F1 ATPase” value in experiment [2] turned out to be 4 fold.
